Measured values published in patent publication US20160272977, “DNMT Inhibitors” (New England Biolabs, Inc., published 2016).

Legend:
[1] = biological target: T1, DNMT1 full-length (Homo sapiens, UniProt P26358 SEQ:1-1616); test: inhibition; competitive vs hemimethylated DNA; details: tags: baculovirus Sf9
[2] = biological target: T2, GST-DNMT1 fragment 4 (Homo sapiens, UniProt P26358 SEQ:1081-1408); test: pulldown; most efficient binder of the four; details: tags: N-terminal GST (pGEX-5x-1); label: 5'-33P in pull-down; predicted to lack stem-loop
T2 chain: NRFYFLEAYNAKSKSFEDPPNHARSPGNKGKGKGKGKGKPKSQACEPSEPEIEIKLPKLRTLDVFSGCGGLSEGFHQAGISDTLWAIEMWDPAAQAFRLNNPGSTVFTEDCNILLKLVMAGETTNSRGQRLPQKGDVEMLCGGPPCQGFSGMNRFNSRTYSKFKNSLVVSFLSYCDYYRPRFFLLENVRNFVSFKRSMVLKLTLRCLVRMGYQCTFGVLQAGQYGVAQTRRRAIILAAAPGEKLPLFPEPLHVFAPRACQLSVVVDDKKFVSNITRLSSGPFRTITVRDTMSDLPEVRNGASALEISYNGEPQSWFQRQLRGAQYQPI
Source text: (§1) The resulting protein bands are shown in FIG. 1B; asterisks mark the positions of the GST-DNMT1 fusion proteins. GST-DNMT1 fragments were adjusted to the same protein concentration with 50% slurry sepharose beads. RNase inhibitor (New England Biolabs, Ipswich, Mass.) was applied to beads slurry at 40 U/mL immediate before use.
(§2) The GST-DNMT1 fragments exposed to a series of small RNA molecules are depicted in FIG. 1D. The RNA oligos were labelled at the 5′ end with [γ-33P]ATP (PerkinElmer, Waltham, Mass.) using T4 polynucleotide kinase (New England Biolabs, Ipswich, Mass.), and purified with Illustra® ProbeQuant® G-50 Micro Columns (GE Healthcare Life Sciences, Piscataway, N.J.) per the manufacturer's instructions. The binding assay was performed in 50 μL reaction volume containing 20 μL of GST-DNMT1 fragment beads, 5 μL of 5 μM labelled RNA oligo, 5 μL of 10×DNMT1 reaction buffer (New England Biolabs, Ipswich, Mass.) and 20 μL of RNase-free water. After incubation at 37° C. for 10 minutes, beads were washed twice and suspended in 200 μL of PBS. The radioactivity associated with the beads was analyzed by liquid scintillation counting using a Tri-Carb® 2900TR (PerkinElmer, Waltham, Mass.). The amount of RNA oligo bound to beads were calculated by normalizing the scintillation counts of beads to that of 1 pmol labelled RNA oligo.

[3] = biological target: T1, DNMT1 full-length; test: inhibition; competitive vs hemimethylated DNA, 37 C; details: tags: baculovirus Sf9
[4] = biological target: T2, GST-DNMT1 fragment 4; test: pulldown; GST pull-down, 33P RNA, 37 C; lower than HPE variant; details: tags: N-terminal GST (pGEX-5x-1); label: 5'-33P in pull-down; stem-loop
Source text: as §1, §2

[5] = biological target: T1, DNMT1 full-length; test: inhibition; mixed inhibition vs AdoMet; details: tags: baculovirus Sf9
Procedure: For determination of the inhibition pattern and Kᵢ of asCEBPα-2 versus hemimethylated DNA substrate, 20 nM of the DNMT1 enzyme was incubated with 1.328, 0.884, 0.59, 0.394, 0.262, 0.1748 and 0.1168 μM (concentration calculated in terms of hemimethylated CpG) of the 36-bp length hemimethylated DNA substrate with the sequence of (CMeGG•CCG)₁₂ and 5.328 μM of [³H]AdoMet (PerkinElmer, Waltham, Mass.) in the presence of 0, 0.25, 0.5, 1, 2 and 4 μM folded asCEBPα-2 inhibitor RNA in 1×DNMT1 reaction buffer (New England Biolabs, Ipswich, Mass.). The reaction was performed at 37° C. for 30 minutes and DNMT1 enzyme was quenched by flash freezing the reaction mix in a dry ice-methanol bath. The reaction was split into two halves and spotted onto DE81 Whatman® 3658-325 ion exchange filter papers (GE Healthcare Life Sciences, Piscataway, N.J.). The Ki and velocity plots were calculated according to Bacolla, et al., J. Biol. Chem., 274:33011-33019 (1999).
For determination of the inhibition patterns of various test RNAs and Kᵢ for asCEBPα-2 versus AdoMet, reactions were carried out at similar conditions as those described above. […] The nanomolar [³H]CH₃ transferred to hemimethylated DNA substrate was calculated in the same way as in the competitive experiment versus hemimethylated DNA substrate, except that the nanomolar concentration obtained was multiplied by an coefficient of 19.5. […]

[6] = biological target: T2, GST-DNMT1 fragment 4; test: pulldown; lower than HPE variant; details: tags: N-terminal GST (pGEX-5x-1); label: 5'-33P in pull-down; stem-loop
Source text: as §1, §2

[7] = biological target: T2, GST-DNMT1 fragment 4; test: pulldown; greater than asCEBPα-1; details: tags: N-terminal GST (pGEX-5x-1); label: 5'-33P in pull-down
Source text: as §1, §2

[8] = biological target: T1, DNMT1 full-length; test: inhibition; competitive vs hemimethylated DNA; details: tags: baculovirus Sf9; remark: listed apart in the source
Procedure: Single point biochemistry assays were performed by incubating 10 nM of the DNMT1 enzyme with 1 μM of hemimethylated DNA and 5.328 μM of [³H]AdoMet in the presence of 5.28 μM of folded synthetic RNA oligos. The reaction was done for 15 minutes and radioactivity was counted. [³H]AdoMet incorporation, initial velocity curve and Kᵢ were calculated as described in Example 2.
FIGS. 7C and 7D are representative plots of the inhibitory activity of 5p-5 and 3p-5 at increasing concentrations.

[9] = label: 5'-33P in pull-down, stem-loop

T1 sequence (P26358 whole entry, the tested form may be a part): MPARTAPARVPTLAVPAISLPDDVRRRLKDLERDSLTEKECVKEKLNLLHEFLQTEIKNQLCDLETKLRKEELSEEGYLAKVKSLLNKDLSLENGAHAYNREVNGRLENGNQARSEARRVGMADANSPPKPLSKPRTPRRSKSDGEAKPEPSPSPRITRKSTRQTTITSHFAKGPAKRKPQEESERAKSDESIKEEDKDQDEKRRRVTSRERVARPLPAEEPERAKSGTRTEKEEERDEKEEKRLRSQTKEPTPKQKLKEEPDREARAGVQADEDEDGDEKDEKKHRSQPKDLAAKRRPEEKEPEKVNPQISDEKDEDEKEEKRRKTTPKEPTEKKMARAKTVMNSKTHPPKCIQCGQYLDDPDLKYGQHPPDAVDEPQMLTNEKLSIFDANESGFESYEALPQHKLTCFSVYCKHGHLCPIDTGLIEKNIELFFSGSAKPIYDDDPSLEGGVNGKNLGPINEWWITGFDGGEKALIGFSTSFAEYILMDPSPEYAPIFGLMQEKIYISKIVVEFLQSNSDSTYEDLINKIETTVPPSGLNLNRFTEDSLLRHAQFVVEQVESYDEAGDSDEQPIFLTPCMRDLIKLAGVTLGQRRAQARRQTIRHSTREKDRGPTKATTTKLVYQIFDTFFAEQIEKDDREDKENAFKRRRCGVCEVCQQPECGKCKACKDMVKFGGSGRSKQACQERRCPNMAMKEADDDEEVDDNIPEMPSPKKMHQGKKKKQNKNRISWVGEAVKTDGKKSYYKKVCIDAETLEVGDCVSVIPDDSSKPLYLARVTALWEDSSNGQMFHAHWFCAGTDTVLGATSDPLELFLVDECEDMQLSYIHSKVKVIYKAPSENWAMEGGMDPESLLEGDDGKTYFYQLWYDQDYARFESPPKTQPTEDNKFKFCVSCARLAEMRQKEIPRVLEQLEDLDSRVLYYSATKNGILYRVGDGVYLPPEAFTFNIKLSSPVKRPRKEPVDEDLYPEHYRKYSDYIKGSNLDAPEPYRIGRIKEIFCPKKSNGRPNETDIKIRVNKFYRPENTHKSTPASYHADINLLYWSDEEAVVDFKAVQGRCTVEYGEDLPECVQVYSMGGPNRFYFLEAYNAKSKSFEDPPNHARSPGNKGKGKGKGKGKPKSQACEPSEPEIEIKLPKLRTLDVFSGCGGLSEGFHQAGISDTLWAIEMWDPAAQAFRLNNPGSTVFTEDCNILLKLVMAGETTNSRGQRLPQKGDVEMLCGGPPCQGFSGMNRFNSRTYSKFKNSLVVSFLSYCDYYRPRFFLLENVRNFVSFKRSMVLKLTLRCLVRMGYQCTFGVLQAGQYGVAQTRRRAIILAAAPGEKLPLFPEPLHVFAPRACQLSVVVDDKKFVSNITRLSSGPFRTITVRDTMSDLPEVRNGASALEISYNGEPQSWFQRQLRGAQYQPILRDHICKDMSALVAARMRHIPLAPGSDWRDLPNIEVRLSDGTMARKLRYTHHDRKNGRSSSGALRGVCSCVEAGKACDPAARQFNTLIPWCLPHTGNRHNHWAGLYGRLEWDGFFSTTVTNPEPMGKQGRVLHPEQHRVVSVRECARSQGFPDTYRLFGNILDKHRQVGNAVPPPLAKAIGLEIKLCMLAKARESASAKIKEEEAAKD

B1: miR-9-3p (ssRNA)
RNA: AUAAAGCUAGAUAACCGAAAGU
With B1 the Ki [1] was 1600 nM.

B2: asCEBPα-2HPE (ssRNA)
RNA: GACAGUGGAGAGGGGCGGAGCGG
For B2, the binding result [2] was “binds” and the Ki ([1]; label: 5'-33P in pull-down, predicted to lack stem-loop) was 135 nM.

B3: miR-155-5p (ssRNA)
RNA: UUAAUGCUAAUCGUGAUAGGGGU
Binder B3 has a Ki [3] of 27.9 nM.

B4: miR-20a-5p (ssRNA)
RNA: UAAAGUGCUUAUAGUGCAGGUAG
B4 was tested, and the Ki [1] was 560 nM.

B5: asCEBPα-1 (ssRNA)
RNA: CCGGGACGCAGGCGGCGUCAGGC
With B5 the binding result [4] was “binds” and the Ki [1, 9] was 2000 nM.

B6: miR-19b-3p (ssRNA)
RNA: UGUGCAAAUCCAUGCAAAACUGA
With B6 the Ki [1] was 3320 nM.

B7: asCEBPα-2 (ssRNA)
RNA: GCCAGUGGCGAGGGGCGGCGCGG
With B7 the Ki [5, 9] was 91.7 nM, the binding result [6] was “binds” and the Ki [1, 9] was 434 nM.

B8: miR-16-5p (ssRNA)
RNA: UAGCAGCACGUAAAUAUUGGCG
B8 was tested, and the Ki [1] was 463 nM.

B9: miR-92a-3p (ssRNA)
RNA: UAUUGCACUUGUCCCGGCCUGU
Binder B9 has a Ki [1] of 1650 nM.

B10: miR-146a-5p (ssRNA)
RNA: UGAGAACUGAAUUCCAUGGGUU
In the case of B10, the Ki [1] is reported as 1030 nM.

B11: asCEBPα-1HPE (ssRNA)
RNA: CCGGGAAGCAGGCGGCGUCAGGC
B11 was tested, and the binding result [7] was “binds” and the Ki ([1]; label: 5'-33P in pull-down) was 918 nM.

B12: miR-17-5p (ssRNA)
RNA: CAAAGUGCUUACAGUGCAGGUAG
B12 was tested, and the Ki [5] was 385 nM and the Ki [1] was 317 nM.

B13: miR-92a-1-5p (ssRNA)
RNA: AGGUUGGGAUCGGUUGCAAUGCU
With B13 the Ki [1] was 476 nM.

B14: miR-127-3p (ssRNA)
RNA: UCGGAUCCGUCUGAGCUUGGCU
Work on B14 yielded a Ki [1] of 269 nM.

B15: miR-373-5p (ssRNA)
RNA: ACUCAAAAUGGGGGCGCUUUCC
B15 gave a Ki [1] of 298 nM.

B16: 5p-5 (ssRNA)
RNA: UCGUGAUAGGGGU
B16 showed a Ki [8] of 124 nM.

B17: miR-9-5p (ssRNA)
RNA: UCUUUGGUUAUCUAGCUGUAUGA
B17 was tested, and the Ki [1] was 493 nM.

B18: miR-145-5p (ssRNA)
RNA: GUCCAGUUUUCCCAGGAAUCCCU
B18 gave a Ki [1] of 2460 nM.

B19: miR-21-5p (ssRNA)
RNA: UAGCUUAUCAGACUGAUGUUGA
For B19, the Ki [1] was 1290 nM.
